The assay has as its target extracellular domain of quail MuSK (amino acid residues 1 to 463), His-tagged (quail). Put plainly: ELISA.

B1: biotinylated recombinant biglycan (non-glycanated form) (ligand)
chain: DEEASGADTSGVLDPDSVTPTYSAMCPFGCHCHLRVVQCSDLGLKSVPKEISPDTTLLDLQNNDISELRKDDFKGLQHLYALVLVNNKISKIHEKAFSPLRKLQKLYISKNHLVEIPPNLPSSLVELRIHDNRIRKVPKGVFSGLRNMNCIEMGGNPLENSGFEPGAFDGLKLNYLRISEAKLTGIPKDLPETLNELHLDHNKIQAIELEDLLRYSKLYRLGLGHNQIRMIENGSLSFLPTLRELHLDNNKLARVPSGLPDLKLLQVVYLHSNNITKVGVNDFCPMGFGVKRAYYNGISLFNNPVPYWEVQPATFRCVTDRLAIQFGNYKK
modifications: biotin (site not stated)
As for B1, the signal of the plate assay (read at 415 nm) amounted to 0.45.

For the origin of these results see paper PMC3313673.
